Results on one molecule are retold here after article doi:10.1101/2024.03.03.583237 (bioRxiv, 2024).

Among the targets are SARS-CoV-1 NTD-mFc (SARS-CoV-1 (NC_004718, Tor2), UniProt P59594); ZC45 NTD-mFc (Bat SARS-like coronavirus ZC45 …, UniProt A0A2R3SUW7); SARS-CoV-2 NTD-mFc (SARS-CoV-2 Wuhan-Hu-1 (NC_045512), UniProt P0DTC2); RaTG13 NTD-mFc (Bat coronavirus RaTG13, UniProt A0ABF7PLN6).
What all share (assay): live-cell binding assay

B1: S2L20-CVR (scFv, V domains shown)
VH: EVQLVESGGGVVQPGGSLRLSCAASGFTFNSYGMHWVRQAPGKGLEWVAFIRYDGGNKYYADSVKGRFTISRDNSKNTLYLQMKSLRAEDTAVYYCANLKDSRYSGSYYDYWGQGTLVTVS
VL: not shown
On to B1, for which the binding result in the assay with SARS-CoV-1 NTD-mFc is reported as “no binding”; with ZC45 NTD-mFc it was “no binding”; in the assay with SARS-CoV-2 NTD-mFc it was “binds”; with RaTG13 NTD-mFc it was “binds”.
